Source: patent publication US20210187002A1 (OSAKA UNIVERSITY, published 2021)

B1: LILRB1-Fc fusion protein (Fc fusion)
chain: GHLPKPTLWAEPGSVITQGSPVTLRCQGGQETQEYRLYREKKTAPWITRIPQELVKKGQFPIPSITWEHTGRYRCYYGSDTAGRSESSDPLELVVTGAYIKPTLSAQPSPVVNSGGNVTLQCDSQVAFDGFILCKEGEDEHPQCLNSQPHARGSSRAIFSVGPVSPSRRWWYRCYAYDSNSPYEWSLPSDLLELLVLGVSKKPSLSVQPGPIVAPEETLTLQCGSDAGYNRFVLYKDGERDFLQLAGAQPQAGLSQANFTLGPVSRSYGGQYRCYGAHNLSSEWSAPSDPLDILIAGQFYDRVSLSVQPGPTVASGENVTLLCQSQGWMQTFLLTKEGAADDPWRLRSTYQSQKYQAEFPMGPVTSAHAGTYRCYGSQSSKPYLLTHPSDPLELVVSGPSGGPSSPTTGPTSTSAGPEDQPLTPTGSDPQSGLGRHLGV
notes: Made in 293T cells and purified with Protein A. For flow cytometry it was complexed with an APC-labeled anti IgG Fc antibody; not shown: Fc part
B2: recombinant RIFIN protein (variable region of PF3D7_1254800 with His tag) (ligand)
chain: YETINAFIAKTIEELEGIPGITKLFGAKISQFVTPAVFRKPMSLVETILSEKKKLCLCAANKNELLCRGMNPNVPETLPKKIEVAVNEVLSSVNDTWATATTPTTFFTNP
notes: Used in solution, on plates and on latex or Luminex beads; also called RIFIN-1; RIFIN beads

How the values were obtained:
[1] = molecular target: T1, fusion protein containing the conserved region of RIFIN (PF3D7_1254800) and the transmembrane and … (Plasmodium falciparum); experiment: flow cytometry on transfected 293T cells
T1 construct: also called fusion protein containing a conserved region

[2] = molecular target: leukocyte immunoglobulin-like receptor subfamily B member 1 (LILRB1) protein (human, UniProt Q8NHL6 24-650); experiment: flow cytometry on LILRB1 protein-expressing 293T cells, APC-labeled anti-His antibody

Binder | binding result [1] | binding result [2]
B1 | no binding | –
B2 | – | binds
